Assay results taken from article PMC12731043.

Target: thrombin (factor IIa)

Question: Which thrombin time (TT), clotting time of control plasma, preparation CRA P1 at 1 µM and 5 µM (21.8 s to 66.8 s; control without protein 14.3 s and 11.7 s) does the source give for “cysteine-rich anticoagulant protein (CRA), recombinant, mature form with C-terminal His-Tag (natural protein)” here?
Answer: The thrombin time (TT), clotting time of control plasma, preparation CRA P1 at 1 µM and 5 µM (21.8 s to 66.8 s; control without protein 14.3 s and 11.7 s) was 66.8 s.

Question: And the thrombin time (TT), clotting time of control plasma, preparation CRA P2 at 1 µM and 5 µM (16.6 s to 30.7 s; control without protein 14.3 s and 11.7 s)?
Answer: The thrombin time (TT), clotting time of control plasma, preparation CRA P2 at 1 µM and 5 µM (16.6 s to 30.7 s; control without protein 14.3 s and 11.7 s) was 30.7 s.

Question: What about the thrombin time (TT), clotting time of control plasma, preparation CRA P3 at 1 µM and 5 µM (20.1 s to 43.3 s; control without protein 14.3 s and 11.7 s) of the same substance?
Answer: The thrombin time (TT), clotting time of control plasma, preparation CRA P3 at 1 µM and 5 µM (20.1 s to 43.3 s; control without protein 14.3 s and 11.7 s) was 43.3 s.
